Reference: patent US20080181886A1 (published 2008)
Ends that are not written are not given here.

How the values were obtained:
human BAFF [1] = biological target: T1, human BAFF (UniProt Q9Y275 82-285); assay: competitive SPR
TRX-APRIL [2] = biological target: T2, TRX-APRIL (mouse, UniProt Q9D777 104-241); assay: competitive SPR (BCMA-Fc)
T2 chain: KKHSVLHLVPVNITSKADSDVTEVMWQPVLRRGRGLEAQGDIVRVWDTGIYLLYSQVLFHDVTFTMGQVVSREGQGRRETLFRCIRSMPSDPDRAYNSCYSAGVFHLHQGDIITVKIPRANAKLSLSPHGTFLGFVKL

TRX-APRIL [3] = biological target: T2, TRX-APRIL; assay: competitive SPR
human BAFF [4] = biological target: T1, human BAFF; assay: competitive SPR; remark: listed apart in the source
human BAFF [5] = biological target: T1, human BAFF; assay: competitive SPR; interaction observed, curve not fitted adequately

T1 sequence (Q9Y275 82-285): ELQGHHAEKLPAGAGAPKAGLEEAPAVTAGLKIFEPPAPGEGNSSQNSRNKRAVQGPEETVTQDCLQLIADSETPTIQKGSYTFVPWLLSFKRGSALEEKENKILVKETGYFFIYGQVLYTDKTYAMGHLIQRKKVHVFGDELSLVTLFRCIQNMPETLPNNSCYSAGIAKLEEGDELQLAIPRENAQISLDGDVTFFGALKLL

B1: TACI_d1d2 (residues 21-116 of the TACI extracellular domain, C-terminal His-tag) (receptor)
chain: FPQGLWTGVAMRSCPEEQYWDPLLGTCMSCKTICNHQSQRTCAAFCRSLSCRKEQGKFYDHLLRDCISCASICGQHPKQCAYFCENKLRSPVNLPP
**Q.** How did the IC50 (human BAFF [1]) turn out when B1 was run?
**A.** 1.3 nM

**Q.** What about the IC50 (TRX-APRIL [2]) of the same binder?
**A.** 11 nM

**Q.** GSPWSLSCRKEQGKFYDHLLRDCISCASICGQHPKQCAYFCENKLR (receptor) [TACI_d2 (second cysteine-rich domain, CRD2, residues 68-109 of human TACI)] was tested. Which IC50 (TRX-APRIL [3]) did it give?
**A.** 3.2 nM

**Q.** What about the IC50 (human BAFF [4]) of the same binder?
**A.** 4 nM

**Q.** And the IC50 (human BAFF [1])?
**A.** 1.8 nM

B2: TACI_d1 (first CRD of TACI, residues 32-67) (receptor)
chain: RSCPEEQYWDPLLGTCMSCKTICNHQSQRTCAAFCR
modifications: disulfide (positions not given here); also: more than one disulfide-bonded isomer, pairings not given here
**Q.** With B2 as the binder, how does the IC50 (human BAFF [5]) read?
**A.** > 100 nM

**Q.** What about the IC50 (TRX-APRIL [2]) of the same binder?
**A.** 2000 nM
